Results: patent US20190233494A1 (Sanofi, published 2019)
Starred links: 1 amine or outer side, 2 acyl side, 3 side chain; linkers in the order of their positions; H or OH if unused. Non-standard residues stand in square brackets, D forms with d. Groups on a side chain read outwards from the residue. *: point of attachment. TTDS = 4-[3-[2-[2-(3-aminopropoxy)ethoxy]ethoxy]propylamino]-4-oxo-butanoyl; Trp(5-Cl) = N[C@@H](Cc1c[nH]c2ccc(Cl)cc12)C(=O)O; Trp(5-F) = N[C@@H](Cc1c[nH]c2ccc(F)cc12)C(=O)O; Phe(4-F) = N[C@@H](Cc1ccc(F)cc1)C(=O)O; γGlu = O=C(O)[C@H](CCC(=O)[*:2])N[*:1]; Palmitoyl = CCCCCCCCCCCCCCCC(=O)*; αMeF = C[C@](N)(Cc1ccccc1)C(=O)O; Myristoyl = CCCCCCCCCCCCCC(=O)*; Cit = NC(=O)NCCC[C@H](N)C(=O)O; αMeK = C[C@](N)(CCCCN)C(=O)O; hLys = NCCCCC[C@H](N)C(=O)O; AEEA = NCCOCCOCC(=O)O; Aib = CC(C)(N)C(=O)O

T1: RXFP1 receptor (endogenous, on OVCAR5 cells) (UniProt Q9HBX9 1-757, limits assumed)
T1 sequence (looked up): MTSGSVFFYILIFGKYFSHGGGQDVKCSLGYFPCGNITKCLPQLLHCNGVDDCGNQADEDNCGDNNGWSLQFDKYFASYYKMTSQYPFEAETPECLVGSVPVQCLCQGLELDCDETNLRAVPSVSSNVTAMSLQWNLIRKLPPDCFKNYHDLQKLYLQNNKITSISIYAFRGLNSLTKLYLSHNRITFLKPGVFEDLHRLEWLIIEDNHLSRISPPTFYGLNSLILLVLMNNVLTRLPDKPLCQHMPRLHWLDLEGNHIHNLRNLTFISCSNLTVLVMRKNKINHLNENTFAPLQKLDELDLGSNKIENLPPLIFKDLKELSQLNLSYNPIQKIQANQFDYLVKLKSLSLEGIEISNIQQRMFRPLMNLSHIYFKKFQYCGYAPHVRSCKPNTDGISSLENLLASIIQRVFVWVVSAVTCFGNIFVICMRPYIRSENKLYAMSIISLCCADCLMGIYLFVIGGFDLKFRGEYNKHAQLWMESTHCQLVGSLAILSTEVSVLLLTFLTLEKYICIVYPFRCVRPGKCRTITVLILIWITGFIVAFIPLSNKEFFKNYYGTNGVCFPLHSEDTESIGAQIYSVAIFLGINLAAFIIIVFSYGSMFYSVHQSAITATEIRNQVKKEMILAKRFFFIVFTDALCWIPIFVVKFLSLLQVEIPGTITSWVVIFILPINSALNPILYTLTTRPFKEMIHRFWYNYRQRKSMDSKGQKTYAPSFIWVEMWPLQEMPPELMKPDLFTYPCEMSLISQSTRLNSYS


Target: T1, RXFP1 receptor (endogenous, on OVCAR5 …)
Test: cell-based or functional assay

Row | Binder | EC50 (nM), OVCAR 5 cells (cAMP) | EMax, OVCAR 5 cells (cAMP)
1 | Ac-LEGRERVRAK(Ac)I[Aib][Aib]EGK([TTDS-TTDS-TTDS-γGlu-γGlu-γGlu-Palmitoyl])ST[Trp(5-Cl)]S[Aib]RRK(Ac)-NH2 [peptide of SEQ ID NO: 80] | 0.63 nM | 93%
2 | Ac-LEGREKVRA[Cit]I[Aib][Aib]EGK([TTDS-TTDS-TTDS-γGlu-γGlu-γGlu-Palmitoyl])STFS[αMeK]RAK(Ac)-NH2 [peptide of SEQ ID NO: 12] | 0.93 nM | 90%
3 | Ac-LEGRERVRAK(Ac)I[Aib][Aib]EGK([TTDS-TTDS-TTDS-γGlu-γGlu-γGlu-Palmitoyl])STFS[Aib]RRK(Ac)-NH2 [peptide of SEQ ID NO: 76] | 0.18 nM | 96%
4 | Ac-LEGREKVRAK(Ac)I[Aib][Aib]EGK([TTDS-TTDS-TTDS-TTDS-γGlu-γGlu-γGlu-Palmitoyl])STFS[αMeK]RAK(Ac)-NH2 [peptide of SEQ ID NO: 78] | 0.18 nM | 99%
5 | Ac-LEGREKVRAK(Ac)I[Aib][Aib]EGK([TTDS-TTDS-TTDS-γGlu-γGlu-γGlu-Palmitoyl])STWS[αMeK]RAK(Ac)-NH2 [peptide of SEQ ID NO: 11] | 0.83 nM | 93%
6 | Ac-LEGREKVRAK(Ac)I[Aib]IEGK([TTDS-TTDS-TTDS-γGlu-γGlu-γGlu-Palmitoyl])STFS[αMeK]RAK(Ac)-NH2 [peptide of SEQ ID NO: 84] | 0.1 nM | 95%
7 | Ac-LEGREKVRAK(Ac)I[Aib][Aib]EGK([TTDS-TTDS-γGlu-γGlu-Palmitoyl])STFS[αMeK]RAK(Ac)-NH2 [peptide of SEQ ID NO: 9] | 0.7 nM | 93%
8 | Ac-LEGREKVRAK(Ac)I[Aib][Aib]EGK([TTDS-TTDS-TTDS-γGlu-γGlu-γGlu-Palmitoyl])SKFS[Aib]RKK(Ac)-NH2 [peptide of SEQ ID NO: 79] | 0.45 nM | 95%
9 | Ac-LEGREKVR[Aib]K(Ac)I[Aib][Aib]EGK([TTDS-TTDS-TTDS-γGlu-γGlu-γGlu-Palmitoyl])STWS[Aib]RAK(Ac)-NH2 [peptide of SEQ ID NO: 82] | 0.54 nM | 95%
10 | Ac-LEGREKVRAK(Ac)I[Aib][Aib]EGK([AEEA-AEEA-AEEA-AEEA-γGlu-γGlu-γGlu-Palmitoyl])STFS[αMeK]RAK(Ac)-NH2 (SMILES CCCCCCCCCCCCCCCC(=O)N[C@@H](CCC(=O)N[C@@H](CCC(=O)N[C@@H](CCC(=O)NCCOCCOCC(=O)NCCOCCOCC(=O)NCCOCCOCC(=O)NCCOCCOCC(=O)NCCCC[C@H](NC(=O)CNC(=O)[C@H](CCC(=O)O)NC(=O)C(C)(C)NC(=O)C(C)(C)NC(=O)[C@@H](NC(=O)[C@H](CCCCNC(C)=O)NC(=O)[C@H](C)NC(=O)[C@H](CCCNC(=N)N)NC(=O)[C@@H](NC(=O)[C@H](CCCCN)NC(=O)[C@H](CCC(=O)O)NC(=O)[C@H](CCCNC(=N)N)NC(=O)CNC(=O)[C@H](CCC(=O)O)NC(=O)[C@H](CC(C)C)NC(C)=O)C(C)C)[C@@H](C)CC)C(=O)N[C@@H](CO)C(=O)N[C@H](C(=O)N[C@@H](Cc1ccccc1)C(=O)N[C@@H](CO)C(=O)N[C@@](C)(CCCCN)C(=O)N[C@@H](CCCNC(=N)N)C(=O)N[C@@H](C)C(=O)N[C@@H](CCCCNC(C)=O)C(N)=O)[C@@H](C)O)C(=O)O)C(=O)O)C(=O)O) [peptide of SEQ ID NO: 8] | 1.86 nM | 92%
11 | Ac-LEGRERVR[Aib]K(Ac)I[Aib][Aib]EGK([TTDS-TTDS-TTDS-γGlu-γGlu-γGlu-Palmitoyl])STWS[Aib]RRK(Ac)-NH2 [peptide of SEQ ID NO: 85] | 0.3 nM | 92%
12 | Ac-LEGREKVRAK(Ac)I[Aib][Aib]EGK([TTDS-TTDS-TTDS-γGlu-γGlu-γGlu-Palmitoyl])STFSRRAK(Ac)-NH2 [peptide of SEQ ID NO: 87] | 0.1 nM | 96%
13 | Ac-K(Ac)EGREKVRAK(Ac)I[Aib][Aib]EGK([TTDS-TTDS-TTDS-γGlu-γGlu-γGlu-Palmitoyl])STFS[αMeK]RAK(Ac)-NH2 [peptide of SEQ ID NO: 81] | 0.16 nM | 98%
14 | Ac-LEGREKVRAK(Ac)I[Aib][Aib]EGK([TTDS-TTDS-γGlu-γGlu-γGlu-γGlu-Palmitoyl])STFS[αMeK]RAK(Ac)-NH2 [peptide of SEQ ID NO: 10] | 0.79 nM | 95%
15 | Ac-LEGRERVRAK(Ac)I[Aib][Aib]EGK([TTDS-TTDS-TTDS-TTDS-γGlu-γGlu-γGlu-Palmitoyl])STFS[Aib]RRK(Ac)-NH2 [peptide of SEQ ID NO: 77] | 0.11 nM | 98%
16 | Ac-[Aib]EGREKVRAK(Ac)I[Aib]IEGK([TTDS-TTDS-TTDS-γGlu-γGlu-γGlu-Palmitoyl])STFS[αMeK]RAK(Ac)-NH2 [peptide of SEQ ID NO: 86] | 0.3 nM | 95%
17 | Ac-LEGREKVRAK(Ac)I[Aib][Aib]EGK([TTDS-TTDS-TTDS-γGlu-γGlu-γGlu-Palmitoyl])SKWS[Aib]RKK(Ac)-NH2 [peptide of SEQ ID NO: 83] | 0.25 nM | 94%

Further lines, results first:

Row | EC50 (nM), OVCAR 5 cells (cAMP) | EMax, OVCAR 5 cells (cAMP) | Binder
18 | 0.14 nM | 97% | Ac-LEGREKVRAK(Ac)IA[Aib]EGK([TTDS-TTDS-TTDS-γGlu-γGlu-γGlu-Palmitoyl])STFS[αMeK]RAK(Ac)-NH2 [peptide of SEQ ID NO: 90]
19 | 1.8 nM | 91% | Ac-LEGREKVRAK(Ac)I[Aib][Aib]EGK([TTDS-TTDS-TTDS-γGlu-γGlu-γGlu-Myristoyl])STFS[αMeK]RAK(Ac)-NH2 [peptide of SEQ ID NO: 95]
20 | 0.17 nM | 96% | Ac-LEGREKVRAK(Ac)I[Aib][Aib]EGK([TTDS-TTDS-TTDS-γGlu-γGlu-γGlu-Palmitoyl])STFS[hLys]RAK(Ac)-NH2 [peptide of SEQ ID NO: 88]
21 | 0.09 nM | 97% | Ac-LEGRERVRAK(Ac)I[Aib][Aib]EGK([TTDS-TTDS-TTDS-γGlu-γGlu-γGlu-Palmitoyl])ST[Phe(4-F)]S[Aib]RRK(Ac)-NH2 [peptide of SEQ ID NO: 91]
22 | 1.74 nM | 88% | Ac-LEGREKVRAK(Ac)I[Aib][Aib]EGK([TTDS-TTDS-TTDS-γGlu-γGlu-γGlu-Palmitoyl])STFVRRAK(Ac)-NH2 [peptide of SEQ ID NO: 94]
23 | 0.1 nM | 97% | Ac-LEGREKVRAK(Ac)I[Aib][Aib]EGK([TTDS-TTDS-TTDS-γGlu-γGlu-γGlu-Palmitoyl])ST[αMeF]SRRAK(Ac)-NH2 [peptide of SEQ ID NO: 89]
24 | 0.29 nM | 98% | Ac-LEGREKVRAK(Ac)I[Aib][Aib]EGK([TTDS-TTDS-TTDS-γGlu-γGlu-γGlu-γGlu-Myristoyl])STFS[αMeK]RAK-NH2 [peptide of SEQ ID NO: 97]
25 | 0.1 nM | 99% | Ac-LEGRERVRAK(Ac)I[Aib][Aib]EGK([TTDS-TTDS-TTDS-γGlu-γGlu-γGlu-Palmitoyl])ST[Trp(5-F)]S[Aib]RRK(Ac)-NH2 [peptide of SEQ ID NO: 92]
26 | 0.88 nM | 92% | Ac-LEGREKVRAK(Ac)I[Aib][Aib]EGK([TTDS-TTDS-TTDS-γGlu-γGlu-γGlu-Myristoyl])STFS[αMeK]RAK-NH2 [peptide of SEQ ID NO: 96]
27 | 0.77 nM | 86% | Ac-LEGREKVRAK(Ac)I[Aib][Aib]EGK([TTDS-TTDS-TTDS-γGlu-γGlu-γGlu-Palmitoyl])STFTRRAK(Ac)-NH2 [peptide of SEQ ID NO: 93]
